Assay results taken from IntAct's records for PubMed 16630557.

B1: mRNA-decapping enzyme subunit 1 (Saccharomyces cerevisiae), Q12517 (parent)
chain: MTGAATAAENSATQLEFYRKALNFNVIGRYDPKIKQLLFHTPHASLYKWDFKKDEWNKLEYQGVLAIYLRDVSQNTNLLPVSPQEVDIFDSQNGSNNIQVNNGSDNSNRNSSGNGNSYKSNDSLTYNCGKTLSGKDIYNYGLIILNRINPDNFSMGIVPNSVVNKRKVFNAEEDTLNPLECMGVEVKDELVIIKNLKHEVYGIWIHTVSDRQNIYELIKYLLENEPKDSFA

Variants of: B1
Conditions: with erf3_yeast SUP35, P05453
erf3_yeast SUP35, P05453, sequence (P05453 whole entry): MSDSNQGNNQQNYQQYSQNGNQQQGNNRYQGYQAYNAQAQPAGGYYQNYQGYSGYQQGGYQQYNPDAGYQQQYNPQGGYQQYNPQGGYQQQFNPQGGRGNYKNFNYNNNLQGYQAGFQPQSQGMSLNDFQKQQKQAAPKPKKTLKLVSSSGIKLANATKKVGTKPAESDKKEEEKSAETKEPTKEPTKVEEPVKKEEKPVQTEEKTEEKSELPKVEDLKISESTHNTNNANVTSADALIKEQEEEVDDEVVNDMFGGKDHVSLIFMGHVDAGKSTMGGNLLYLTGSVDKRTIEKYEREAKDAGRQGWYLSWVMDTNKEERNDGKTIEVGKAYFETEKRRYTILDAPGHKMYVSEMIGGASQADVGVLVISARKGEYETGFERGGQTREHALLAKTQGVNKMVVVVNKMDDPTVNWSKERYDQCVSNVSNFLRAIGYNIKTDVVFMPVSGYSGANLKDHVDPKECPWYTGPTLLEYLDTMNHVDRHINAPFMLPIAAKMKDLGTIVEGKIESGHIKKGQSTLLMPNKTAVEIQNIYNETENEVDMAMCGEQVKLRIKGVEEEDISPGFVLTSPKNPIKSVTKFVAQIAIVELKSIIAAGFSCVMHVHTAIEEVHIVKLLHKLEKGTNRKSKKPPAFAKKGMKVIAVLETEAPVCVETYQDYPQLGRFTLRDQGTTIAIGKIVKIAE

Row | Variant | effect of a mutation on the interaction
1 | S45P | decreasing interaction
2 | L38P;S45P | decreasing interaction
